Measurements taken from publication PMC8219681, “Inhibition of MRN activity by a telomere protein motif” (Nature Communications, 2021).

T1: MBP-Rif2-min (S. cerevisiae Rif2 F8E P10N), Q06208
T1 chain: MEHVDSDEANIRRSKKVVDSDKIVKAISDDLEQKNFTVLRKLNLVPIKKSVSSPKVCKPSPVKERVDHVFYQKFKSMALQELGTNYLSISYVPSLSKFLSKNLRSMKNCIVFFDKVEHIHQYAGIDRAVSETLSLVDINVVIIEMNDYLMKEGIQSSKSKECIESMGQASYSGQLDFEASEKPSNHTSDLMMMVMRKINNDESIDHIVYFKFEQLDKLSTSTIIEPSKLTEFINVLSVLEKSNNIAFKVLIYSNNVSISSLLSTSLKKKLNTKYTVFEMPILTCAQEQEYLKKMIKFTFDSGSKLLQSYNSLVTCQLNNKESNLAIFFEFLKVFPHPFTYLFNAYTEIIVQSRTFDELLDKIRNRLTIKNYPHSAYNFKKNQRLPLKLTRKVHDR

T2: Rif2 (Saccharomyces cerevisiae, UniProt Q06208 1-395)
T2 sequence: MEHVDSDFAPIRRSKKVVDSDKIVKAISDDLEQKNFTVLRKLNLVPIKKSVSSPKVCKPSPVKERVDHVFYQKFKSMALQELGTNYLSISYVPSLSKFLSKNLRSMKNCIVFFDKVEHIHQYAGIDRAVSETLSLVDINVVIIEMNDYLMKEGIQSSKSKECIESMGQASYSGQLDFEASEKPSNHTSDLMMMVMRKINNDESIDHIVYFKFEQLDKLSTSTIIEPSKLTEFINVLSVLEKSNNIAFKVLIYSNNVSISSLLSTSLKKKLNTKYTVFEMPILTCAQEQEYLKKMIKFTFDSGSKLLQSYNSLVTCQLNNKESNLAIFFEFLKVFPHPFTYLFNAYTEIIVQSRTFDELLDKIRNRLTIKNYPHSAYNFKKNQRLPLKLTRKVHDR

T3: Rif2-min (Saccharomyces cerevisiae, UniProt Q06208 1-395, F8E;P10N)
T3 sequence: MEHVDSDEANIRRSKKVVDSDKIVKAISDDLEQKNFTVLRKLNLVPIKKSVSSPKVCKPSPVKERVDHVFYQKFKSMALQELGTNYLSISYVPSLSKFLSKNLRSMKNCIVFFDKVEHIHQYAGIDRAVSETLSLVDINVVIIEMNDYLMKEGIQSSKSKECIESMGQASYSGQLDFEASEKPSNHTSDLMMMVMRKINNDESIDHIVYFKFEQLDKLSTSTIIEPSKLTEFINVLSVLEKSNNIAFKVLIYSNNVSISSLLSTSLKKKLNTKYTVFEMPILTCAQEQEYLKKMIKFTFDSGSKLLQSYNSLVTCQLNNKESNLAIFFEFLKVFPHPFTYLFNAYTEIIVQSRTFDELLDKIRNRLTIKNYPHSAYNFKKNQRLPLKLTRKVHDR

B1: m3; m1 Rad50:K81I; Rif2:F8E; Rif2:P10N (protein)
chain: MSAIYKLSIQGIRSFDSNDRETIEFGKPLTLIVGMNGSGKTTIIECLKYATTGDLPPNSKGGVFIHDPKITGEKDIRAQVILAFTSANGLNMIVTRNIQLLMKKTTTTFKTLEGQLVAINNSGDRSTLSTRSLELDAQVPLYLGVPKAILEYVIFCHQEDSLWPLSEPSNLKKKFDEIFQAMKFTKALDNLKSIKKDMSVDIKLLKQSVEHLKLDKDRSKAMKLNIHQLQTKIDQYNEEVSEIESQLNEITEKSDKLFKSNQDFQKILSKVENLKNTKLSISDQVKRLSNSIDILDLSKPDLQNLLANFSKVLMDKNNQLRDLETDISSLKDRQSSLQSLSNSLIRRQGELEAGKETYEKNRNHLSSLKEAFQHKFQGLSNIENSDMAQVNHEMSQFKAFISQDLTDTIDQFAKDIQLKETNLSDLIKSITVDSQNLEYNKKDRSKLIHDSEELAEKLKSFKSLSTQDSLNHELENLKTYKEKLQSWESENIIPKLNQKIEEKNNEMIILENQIEKFQDRIMKTNQQADLYAKLGLIKKSINTKLDELQKITEKLQNDSRIRQVFPLTQEFQRADLEMDFQKLFINMQKNIAINNKKMHELDRRYTNALYNLNTIEKDLQDNQKSKEKVIQLLSENLPEDCTIDEYNDVLEETELSYKTALENLKMHQTTLEFNRKALEIAERDSCCYLCSRKFENESFKSKLLQELKTKTDANFEKTLKDTVQNEKEYLHSLRLLEKHIITLNSINEKIDNSQKCLEKAKEETKTSKSKLDELEVDSTKLKDEKELAESEIRPLIEKFTYLEKELKDLENSSKTISEELSIYNTSEDGIQTVDELRDQQRKMNDSLRELRKTISDLQMEKDEKVRENSRMINLIKEKELTVSEIESSLTQKQNIDDSIRSKRENINDIDSRVKELEARIISLKNKKDEAQSVLDKVKNERDIQVRNKQKTVADINRLIDRFQTIYNEVVDFEAKGFDELQTTIKELELNKAQMLELKEQLDLKSNEVNEEKRKLADSNNEEKNLKQNLELIELKSQLQHIESEISRLDVQNAEAERDKYQEESLRLRTRFEKLSSENAGKLGEMKQLQNQIDSLTHQLRTDYKDIEKNYHKEWVELQTRSFVTDDIDVYSKALDSAIMKYHGLKMQDINRIIDELWKRTYSGTDIDTIKIRSDEVSSTVKGKSYNYRVVMYKQDVELDMRGRCSAGQKVLASIIIRLALSETFGANCGVIALDEPTTNLDEENIESLAKSLHNIINMRRHQKNFQLIVITHDEKFLGHMNAAAFTDHFFKVKRDDRQKSQIEWVDINRVTY
B2: PC1253C/PC1253B 50 bp dsDNA (dsDNA)
DNA 1: AACGTCATAGACGATTACATTGCTAGGACATCTTTGCCCACGTTGACCCA
DNA 2: TGGGTCAACGTGGGCAAAGATGTCCTAGCAATGTAATCGTCTATGACGTT
modifications: 3'-terminal biotin (stated for the nuclease substrate; strand(s) ambiguous; streptavidin not mentioned for EMSA)

Key:
[1] = target: T1, MBP-Rif2-min (S. cerevisiae Rif2 F8E …); test: pull-down (amylose-immobilized MBP-Rif2-min bait, Western blot with anti-Rad50 antibody, quantified); conditions: chain shown with the change; three independent blots; mean with SEM; parent: est. 100; read off a plot
[2] = target: T2, Rif2; test: EMSA; 5 mM Mg2+, 1 mM Mn2+, 1 mM ATP; 25 mM Tris-acetate pH 7.5, 1 mM DTT, 5 mM Mg acetate, 1 mM Mn acetate, 0.25 mg/ml BSA, 1 mM PEP, 1 mM ATP, 80 U/ml pyruvate kinase, 1 nM DNA, 30 C 30 min; 6% PAGE in TAE; conditions: protein: recombinant; tags: C-terminal His (N-terminal MBP cleaved with PreScission); label: 32P; blunt
[3] = target: T3, Rif2-min; test: as above; conditions: protein: recombinant; tags: C-terminal His (N-terminal MBP cleaved with PreScission); label: 32P; blunt

Row | Binder | percent of parent (Relative value) [1] | binding result [2] | binding result [3]
1 | B1 | 14 |  | 
2 | B2 |  | binds | binds
